Test results taken from publication PMC9635822.
Blank lines part the entries; values can stand above or below the substance they belong to.

Experiments:
Assay in all cases: optical tweezers, force between two trapped cells
[1] = biological target: AGA2-Im7 displayed on S. cerevisiae cells (ScΨ) (UniProt Q03708)
[2] = biological target: AGA2-CL7 displayed on S. cerevisiae cells (ScΦ) (UniProt Q47112)
[3] = biological target: AGA2-SpyCatcher displayed on S. cerevisiae cells (ScB)
[4] = biological target: AGA2-SpyTag displayed on S. cerevisiae cells (ScA)

Chain of UniProt Q03708 (Q03708 whole entry): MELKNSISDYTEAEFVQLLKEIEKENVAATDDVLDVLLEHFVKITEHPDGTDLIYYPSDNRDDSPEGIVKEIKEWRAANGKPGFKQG

force needed to pull apart the new cells of the cluster [1]: < 351 pN
pulling force up to which the two cells remained attached [1]: 335 pN
Substance: AGA2-CL7 displayed on S. cerevisiae cells (ScΦ) (from UniProt Q47112 371-576) (domain or fragment)

interaction force between the two cells [2]: < 10 pN
Substance: AGA2-SpyCatcher displayed on S. cerevisiae cells (ScB) (designed binder)

Substance: AGA2-SpyTag displayed on S. cerevisiae cells (ScA) (peptide)
force needed to pull apart the new cells of the cluster [3]: < 248 pN
pulling force up to which the two cells remained attached [3]: 335 pN
interaction force between the two cells [4]: < 10 pN
